In the supplement of paper PMC7125110:
± gives the standard error. This sample holds only a part of the variants without activity.

B1: glmS ribozyme (parent)
chain: AUAAAAGCGCCAGAACUACAGAAAUGUAGUUGACGAGGAGGAGGUUUAUCGAAUUUUCGGCGGAUGCCUCCAAA

Variants of: B1
Assay: self-cleavage kobs at 2500 uM GlcN6P; higher = faster cleavage; RNA array
Details: with glucosamine-6-phosphate
Method in brief: (§1)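 Barcoded ribozyme variants on sequenced MiSeq chips were transcribed in situ by E. coli RNA polymerase and followed at 37 °C through a hybridised Cy3 probe. Glucosamine-6-phosphate at 40 μM to 10 mM in HEPES/KCl/Mg(OAc)2 buffer was flowed in, and tiles were imaged over ~14 h. Signals were normalised to baseline and to non-cleaving reference variants, and per-tile medians were fit to one- or two-exponential decays to give kobs. Weighted Michaelis–Menten fits across concentrations gave kcat and KM.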

First: A33C G35U A42G A48G
Second: A15G U47A C58G
The “self-cleavage kobs at 2500 uM GlcN6P” value of the first is lower: < 1e-05 s⁻¹ for the first, 4.72e-05 ± 1.4e-05 s⁻¹ for the second.

Going from C16U G32A G41A to A14U G37C A42C, the “self-cleavage kobs at 2500 uM GlcN6P” value falls from 0.000133 ± 2.7e-05 s⁻¹ to < 1e-05 s⁻¹.

G29U G38C G59A and U30C U31A A36G C50A U57G cannot be ordered by “self-cleavage kobs at 2500 uM GlcN6P” value: < 1e-05 s⁻¹ for the first, < 1e-05 s⁻¹ for the second.

G32A G38U A53C U55C G60C C71U and G32A G60C C70A cannot be ordered by “self-cleavage kobs at 2500 uM GlcN6P” value: < 1e-05 s⁻¹ for the first, < 1e-05 s⁻¹ for the second.

G32A U49A U65G and G32A G41C C68U cannot be ordered by “self-cleavage kobs at 2500 uM GlcN6P” value: < 1e-05 s⁻¹ for the first, < 1e-05 s⁻¹ for the second.

G29C C34G G51U U54A U65A C70U and U31G G40U G60A cannot be ordered by “self-cleavage kobs at 2500 uM GlcN6P” value: < 1e-05 s⁻¹ for the first, < 1e-05 s⁻¹ for the second.

G29C U30C G32U A52C and A15U A33U G62A cannot be ordered by “self-cleavage kobs at 2500 uM GlcN6P” value: < 1e-05 s⁻¹ for the first, < 1e-05 s⁻¹ for the second.

A15C G43U C67A and A15G G44C are within error of each other in “self-cleavage kobs at 2500 uM GlcN6P” value: 0.000235 ± 7.7e-05 s⁻¹ for the first, 0.00014 ± 4.2e-05 s⁻¹ for the second.

Going from A15G G35C G37U G43C to U30C A39U U56G, the “self-cleavage kobs at 2500 uM GlcN6P” value rises from < 1e-05 s⁻¹ to 2.5e-05 ± 1.2e-05 s⁻¹.

Going from U30A A33U C58G U69C to A15U G29A G35U G37A U54A, the “self-cleavage kobs at 2500 uM GlcN6P” value falls from 0.000281 ± 8.6e-05 s⁻¹ to < 1e-05 s⁻¹.

First: C16U A42G U57C
Second: G29A G37U U57C
The “self-cleavage kobs at 2500 uM GlcN6P” value of the first is higher: 0.000189 ± 6.6e-05 s⁻¹ for the first, < 1e-05 s⁻¹ for the second.

Compared with U30C U45A U55A C67U, U30G A42C A52C G60U is lower in “self-cleavage kobs at 2500 uM GlcN6P” value: 0.00196 ± 0.00072 s⁻¹ for the first, < 1e-05 s⁻¹ for the second.

First: A33C A53G U55G
Second: A33C G38C A48U
The “self-cleavage kobs at 2500 uM GlcN6P” value of the first is higher: 0.000103 ± 2.8e-05 s⁻¹ for the first, < 1e-05 s⁻¹ for the second.

First: U31G G63C
Second: U30A C68G
The “self-cleavage kobs at 2500 uM GlcN6P” value of the first is lower: < 1e-05 s⁻¹ for the first, 7.09e-05 ± 1.5e-05 s⁻¹ for the second.

First: U31G A39G U57A A64G
Second: A14U U30C A53C
The “self-cleavage kobs at 2500 uM GlcN6P” value of the first is higher: 5.58e-05 ± 2e-05 s⁻¹ for the first, < 1e-05 s⁻¹ for the second.

U30A G51A C61U and G32U G35U A53G C58A cannot be ordered by “self-cleavage kobs at 2500 uM GlcN6P” value: < 1e-05 s⁻¹ for the first, < 1e-05 s⁻¹ for the second.

Going from C16U U31C A53C U56A C70U to G26U A48G, the “self-cleavage kobs at 2500 uM GlcN6P” value falls from 0.000183 ± 4.6e-05 s⁻¹ to 7.11e-05 ± 1.8e-05 s⁻¹ (2.6-fold).

First: C16G U54C C70U
Second: A28C U49G U55A
The “self-cleavage kobs at 2500 uM GlcN6P” value of the first is 5.4-fold higher: 0.00152 ± 0.00038 s⁻¹ for the first, 0.000284 ± 7.5e-05 s⁻¹ for the second.

Compared with A33C G63A C68A, A33C C50G is higher in “self-cleavage kobs at 2500 uM GlcN6P” value: < 1e-05 s⁻¹ for the first, 0.000218 ± 9.9e-05 s⁻¹ for the second.

A15C G32U G38C G59U and U30C G40C G62A cannot be ordered by “self-cleavage kobs at 2500 uM GlcN6P” value: < 1e-05 s⁻¹ for the first, < 1e-05 s⁻¹ for the second.

A15G C58U C70U and A14U U30A A39C are within error of each other in “self-cleavage kobs at 2500 uM GlcN6P” value: 3.63e-05 ± 1.4e-05 s⁻¹ for the first, 2.93e-05 ± 1.5e-05 s⁻¹ for the second.

Going from C16U U57A C70A to A33G A53C U65A C67U, the “self-cleavage kobs at 2500 uM GlcN6P” value falls from 8.78e-05 ± 3.6e-05 s⁻¹ to < 1e-05 s⁻¹.

G32C A33C G63U G66A and A33C A39G G40U U49A cannot be ordered by “self-cleavage kobs at 2500 uM GlcN6P” value: < 1e-05 s⁻¹ for the first, < 1e-05 s⁻¹ for the second.

Going from A14G G40C G41C A48G C71G to U31C U45A U57C, the “self-cleavage kobs at 2500 uM GlcN6P” value rises from < 1e-05 s⁻¹ to 4.12e-05 ± 1.4e-05 s⁻¹.

First: A24C G40U
Second: C16G G43A U57A G66U U69A
The “self-cleavage kobs at 2500 uM GlcN6P” value of the first is higher: 0.00193 ± 0.0007 s⁻¹ for the first, < 1e-05 s⁻¹ for the second.

A14G G63C A64U and C16G G51U U57G cannot be ordered by “self-cleavage kobs at 2500 uM GlcN6P” value: < 1e-05 s⁻¹ for the first, < 1e-05 s⁻¹ for the second.

G32U A42C U54A and A33U A48U G59A C61U C71U cannot be ordered by “self-cleavage kobs at 2500 uM GlcN6P” value: < 1e-05 s⁻¹ for the first, < 1e-05 s⁻¹ for the second.

G32C G35A A42U and A33G A42U U47A A53G cannot be ordered by “self-cleavage kobs at 2500 uM GlcN6P” value: < 1e-05 s⁻¹ for the first, < 1e-05 s⁻¹ for the second.

Compared with A15C C16G A39C U46G U56C, A14U A48G C58A A64U C70G is higher in “self-cleavage kobs at 2500 uM GlcN6P” value: < 1e-05 s⁻¹ for the first, 5.92e-05 ± 2.4e-05 s⁻¹ for the second.

First: A33U G37C G38C G43A G51A
Second: C16U G41C C70A
The “self-cleavage kobs at 2500 uM GlcN6P” value of the first is lower: < 1e-05 s⁻¹ for the first, 0.000347 ± 0.00017 s⁻¹ for the second.

Compared with A14U A39G G41U, A15U U55G A64U C71U is lower in “self-cleavage kobs at 2500 uM GlcN6P” value: 0.000106 ± 2.6e-05 s⁻¹ for the first, < 1e-05 s⁻¹ for the second.

Going from A15C U31C C71A to A33U A48G U55G, the “self-cleavage kobs at 2500 uM GlcN6P” value falls from 0.000185 ± 3.9e-05 s⁻¹ to < 1e-05 s⁻¹.

Going from A14U G43C C68U to A14U A15U U56A G59C G63C, the “self-cleavage kobs at 2500 uM GlcN6P” value falls from 5.22e-05 ± 1.6e-05 s⁻¹ to < 1e-05 s⁻¹.

G32U G37A G63C and U30G G32A A42U A48G cannot be ordered by “self-cleavage kobs at 2500 uM GlcN6P” value: < 1e-05 s⁻¹ for the first, < 1e-05 s⁻¹ for the second.

Compared with G26U U65A, U31A G41U G59U is lower in “self-cleavage kobs at 2500 uM GlcN6P” value: 0.00219 ± 0.00042 s⁻¹ for the first, < 1e-05 s⁻¹ for the second.

First: G32U A39C
Second: G29U A33G G40A
The “self-cleavage kobs at 2500 uM GlcN6P” value of the first is higher: 4.98e-05 ± 1.5e-05 s⁻¹ for the first, < 1e-05 s⁻¹ for the second.

Compared with A15U C16G C58A, U30G A42G G66U C71A is 2.8-fold lower in “self-cleavage kobs at 2500 uM GlcN6P” value: 0.000131 ± 2.8e-05 s⁻¹ for the first, 4.6e-05 ± 2.2e-05 s⁻¹ for the second.

Compared with U31C G40U A42U G63C, U31G G32U U45A C71U is higher in “self-cleavage kobs at 2500 uM GlcN6P” value: < 1e-05 s⁻¹ for the first, 0.000679 ± 0.00029 s⁻¹ for the second.

A15C G41U U57C A64U and U30C G35U G51A A53U U56C cannot be ordered by “self-cleavage kobs at 2500 uM GlcN6P” value: < 1e-05 s⁻¹ for the first, < 1e-05 s⁻¹ for the second.

Variants of: B1
Assay: self-cleavage kobs at 10000 uM GlcN6P; higher = faster cleavage; RNA array
Details: with glucosamine-6-phosphate
Method in brief: as §1

Going from C16U G32A G41A to A15G G44C, the “self-cleavage kobs at 10000 uM GlcN6P” value falls from 0.00033 ± 9.1e-05 s⁻¹ to 0.000166 ± 3.2e-05 s⁻¹ (2-fold).

Going from U30C A39U U56G to C16U A42G U57C, the “self-cleavage kobs at 10000 uM GlcN6P” value rises from 9.2e-05 ± 2.1e-05 s⁻¹ to 0.00018 ± 4.1e-05 s⁻¹ (2-fold).

Compared with A33C A53G U55G, A33C G38C A48U is lower in “self-cleavage kobs at 10000 uM GlcN6P” value: 0.000163 ± 2.9e-05 s⁻¹ for the first, < 1e-05 s⁻¹ for the second.

Compared with U30A G51A C61U, C16U U31C A53C U56A C70U is higher in “self-cleavage kobs at 10000 uM GlcN6P” value: < 1e-05 s⁻¹ for the first, 0.000335 ± 8.2e-05 s⁻¹ for the second.

Going from G32U A39C to U30C G35U G51A A53U U56C, the “self-cleavage kobs at 10000 uM GlcN6P” value falls from 7.09e-05 ± 1.1e-05 s⁻¹ to < 1e-05 s⁻¹.
